For the test, the target named is B′ protein (GyrB C-terminal domain) of M. tuberculosis DNA gyrase (M. tuberculosis). The experiment in a line: […]) in 50 mM Tris–HCl.

Usually Kd stands for the equilibrium constant for the complex coming apart. “B′ protein (GyrB C-terminal domain) of M. tuberculosis DNA gyrase (domain or fragment)” yielded a dissociation constant Kd of under 1000 nM.
